“Also recorded” adds a separate entry of the source.
Legend:
RIP1-Tag5 tumours [1] = assay: Short term treatment of tumour-bearing RIP1-Tag5 mice, tumour histology; type: in vivo, mouse
Description: Short term treatment: commencing at 26-27 weeks of age mice were treated for 2 weeks with bi-weekly intravenous (i.v.) injections of recombinant proteins in 100 μl volume at 0.2 ng (equivalent to approximately […] body weight for a 30 g mouse) or 20 ng (equivalent to approximately […] body weight for a 30 g mouse) LIGHT or LIGHT-RGR. When indicated this was followed by one adoptive transfer of TagTCR8 (CD8+) T cells. Four days later, mice were sacrificed and tumours were isolated for histology. For adoptive transfer experiments, TagTCR8 lymph node cells were activated in vitro for 3 days, with 10 U of rIL-2/ml and 25 nM Tag peptide […] (SEFLIEKRI). 2.5×10^6 activated CD8^+ T cells were injected i.v once. The short term treatment regimen is shown schematically in FIG. 1
(§1) Mice were perfused with 2% neutral-buffered formalin before removal of tumours. Tumours were incubated in 10% (2 h) and 30% sucrose overnight and embedded in OCT compound. For immunohistochemistry the following antibodies were used: anti B220 (BD Pharmingen), anti-CD8 (Ly-2, BD Pharmingen), anti-CD31 (Mec 13.3., BD Pharmingen), anti-ICAM2 (3C4, BD Pharmigen), anti-CD45 (30-F11, BD Pharmingen), anti-CD68 (FA-11, BD Biosciences), anti-calponin (rabbit monoclonal EP798Y, Abcam), anti-caldesmon (rabbit monoclonal E89, Abcam), anti-collagen I or collagen IV (rabbit polyclonal, Abcam), Ki67 (PP67, Abcam), MECA79 (American type tissue culture, ATCC) and αSMA (1A4, Sigma). For secondary detection, AMCA (7-Amino-4-methylcoumarin-3-acetic acid), Cy-3 or FITC-conjugated IgG F(ab′)2 fragments (Jackson Immuno Research) were used. The αSMA staining was amplified using the mouse on mouse (M.O.M.) kit (Vector). For lectin perfusion, mice were i.v. injected with 50 μg of FITC-labelled tomato lectin (Lycopersicon esculentum, Vector). After 10 min of circulation, mice were heart-perfused with 2% neutral-buffered formalin and tumours frozen in OCT. To evaluate vessel leakiness, 1 mg of 70 kDa Texas Red Dextran (Invitrogen) was injected i.v. and allowed to circulate for 10 min. Mice were heart-perfused with PBS followed by 2% neutral buffered formalin and tumours frozen in OCT. Apoptosis was assessed using TUNEL staining (Roche). Images were recorded on a Nikon Ti-E microscope and quantified using NIS software modules (version 3.0).
To study the complex interrelationship between tumour, tumour vessels and the immune system, the inventors' analyses focused on a transgenic mouse model which develops spontaneous tumours that mimic the clinical scenario with regard to native anatomical location, slow growth kinetics, and multistep tumour progression. In RIP1-Tag5 mice, the oncogene SV40 Large T antigen (Tag; RIP, rat insulin gene promoter) is exclusively expressed in β cells of the pancreas leading to stepwise tumour development through well-characterized stages progressing from hyperplastic islets, to the initiation of Tag expression at approximately 10 weeks, the onset of blood vessel formation in angiogenic islets (termed “angiogenic switch”) at approximately 16 weeks and then to highly vascularised solid tumours at approximately 22 weeks, followed by death at approximately 30 weeks.

stromal cells = assay: CCL21 secretion by stromal cells
RIP1-Tag5 tumours [2] = assay: Short term treatment of tumour-bearing RIP1-Tag5 mice, tumour histology; type: in vivo, mouse; settings: 2 μg; regimen not stated
[3] = system: tumour resident macrophages; assay: TGFβ secretion of ex vivo purified tumour resident macrophages (ELISA); type: cell-based, mouse; settings: macrophages from treated tumours; data not shown
4T1 breast cancer = assay: Breast tumour model, orthotopic 4T1 in Balb/c mice, tumour histology; type: in vivo, mouse
Description: Murine breast cancer cells (5×10^6, 4T1 from ATCC) were injected orthotopically into the mammary fat pad of Balb/c mice. […] Mice were injected with pimonidazole (hypoxia marker) and FITC-labelled lectin. After 1 h/10 min (pimonidazole/lectin, respectively) circulation, mice were perfused with 2% formalin and tumors dissected and fresh frozen in OCT compound. Tumours were analyzed by histology for vessel frequency (CD31), quality of vessel perfusion (CD31 plus lectin-FITC), caldesmon induction and frequency of intratumoral hypoxia (pimonidazole staining).
Murine breast cancer cells (5×10^6, 4T1 from ATCC) were injected orthotopically into the mammary fat pad of Balb/c mice. […] Mice were injected with pimonidazole (hypoxia marker) and FITC-labelled lectin. After 1 h/10 min (pimonidazole/lectin, respectively) circulation, mice were perfused with 2% formalin and tumors dissected and fresh frozen in OCT compound. Tumours were analyzed by histology for vessel frequency (CD31), quality of vessel perfusion (CD31 plus lectin-FITC), caldesmon (contractile pericyte marker) induction and frequency of intratumoral hypoxia (pimonidazole staining).

RIP1-Tag5 tumours [4] = assay: Long term treatment and survival studies in RIP1-Tag5 mice; type: in vivo, mouse
Description: 22 week-old RIP1-Tag5 mice were treated with bi-weekly i.v. injections of recombinant proteins as described for short term regimens for a total of 8 weeks and survival/tumour burden analysed at the set endpoint of 30 weeks. For adoptive transfer experiments, 2.5×10^6 activated TagTCR8 CD8^+ T cells were injected i.v twice (at week 4 and week 6). In adoptive transfer experiments (without LIGHT-RGR), mice received two adoptive transfers only. Chemotherapy: 22 week-old mice were treated with i.v. injections of 0.2 ng LIGHT-RGR bi-weekly over a period of 8 weeks and were simultaneously provided with […] cyclophosphamide (metronomic low dose) in drinking water throughout the experiment. The long term treatment regimen is shown schematically in FIG. 2. In addition, mice were treated with cyclophosphamide and/or LIGHT-RGR and survival monitored (death as endpoint).
For vaccination, mice were primed with one subcutaneous injection (tail base) of 50 μg recombinant Tag protein mixed with 50 μg Freund's adjuvant (Sigma). […] For combination therapies with checkpoint blockade, RIP1-Tag5 mice were treated with LIGHT-RGR (20 ng, iv, biweekly) in combination with anti-PD1 ([…].) and anti-CTLA4 ([…].) antibodies (BioXCell). In addition, mice were treated with triple combination of LIGHT-RGR/anti-PD1+anti CTL4/anti-Tag vaccine.
as §1
Cumulative survival time was calculated by the Kaplan-Meier method and analyzed by the log-rank test. Student's t test (2-tailed) was used unless indicated otherwise. A P value of less than 0.05 was considered statistically significant. Error bars indicate SD unless stated otherwise.
To study the complex interrelationship between tumour, tumour vessels and the immune system, the inventors' analyses focused on a transgenic mouse model which develops spontaneous tumours that mimic the clinical scenario with regard to native anatomical location, slow growth kinetics, and multistep tumour progression.

pericyte cell line = assay: Calponin/caldesmin expression in pericyte cell line in vitro; type: cell-based; settings: direct LIGHT induction; data not shown
[5] = 0.2 ng i.v. bi-weekly for 2 weeks
[6] = 20 ng i.v. bi-weekly for 2 weeks

B1: LIGHT-RGR (protein)
chain: MESVVQPSVFVVDGQTDIPFRRLEQNHRRRRCGTVQVSLALVLLLGAGLATQGWFLLRLHQRLGDIVAHLPDGGKGSWEKLIQDQRSHQANPAAHLTGANASLIGIGGPLLWETRLGLAFLRGLTYHDGALVTMEPGYYYVYSKVQLSGVGCPQGLANGLPITHGLYKRTSRYPKELELLVSRRSPCGRANSSRVWWDSSFLGGVVHLEAGEEVVVRVPGNRLVRPRDGTRSYFGAFMVGGGCRGRRSTG
collagen IV alignment / stromal Col IV (RIP1-Tag5 tumours [1]; [5]): close vessel alignment of collagen IV; also recorded: decreased stromal Col IV
pericyte attachment to vessels (αSMA+ pericytes) (RIP1-Tag5 tumours [1]; [5]): firm attachment of pericytes to vessels; also recorded: significantly decreased the protrusion of αSMA+ pericytes from the vasculature
normalization of tumour vessels (histology) (RIP1-Tag5 tumours [1]; 0.2 ng i.v. bi-weekly for 2 weeks (four injections), RIP1-Tag5 mice): normalized chaotic tumour vessels
total vessel counts / CD31 surface area (RIP1-Tag5 tumours [1]; 0.2 ng i.v. bi-weekly for 2 weeks, CD31 vessel marker): without affecting total vessel counts; also recorded: total surface area of CD31 remained intact
tumour vessel caliber (RIP1-Tag5 tumours [1]; 0.2 ng i.v. bi-weekly for 2 weeks, small <30 μm, larger 150-200 μm): shift from large to small caliber tumour vessels; also recorded: significant increase in small vessels
T cell infiltration, compared to either treatment on their own (RIP1-Tag5 tumours [1]; 0.2 ng in combination with adoptive transfer of in vitro activated CD8+ T cells): significantly improves T cell infiltration
tumour perfusion (FITC-lectin staining of vessels) (RIP1-Tag5 tumours [1]; 0.2 ng, 2 week treatment): indicative of adequate perfusion; also recorded: increased tumour perfusion
vessel leakiness (extravasation of 70 kDa dextran) (RIP1-Tag5 tumours [1]; 0.2 ng, 2 week treatment): less leaky phenotype; also recorded: reduced vascular leakiness
CD8+ T cell infiltration (RIP1-Tag5 tumours [1]; 0.2 ng, short term): enhance CD8+ T cell infiltration
ICAM-1 expression on tumour endothelial cells (RIP1-Tag5 tumours [1]; 0.2 ng, short term): increases expression of the inflammatory adhesion molecule ICAM-1
expression of collagen I in normalized vessels (RIP1-Tag5 tumours [1]; 0.2 ng, short term): significantly down regulated
expression of contractile markers calponin and caldesmon in αSMA-positive tumour pericytes (RIP1-Tag5 tumours [1]; 0.2 ng, short term): significant increase in expression; also recorded: significantly up regulated
function of vessels within the tumour (RIP1-Tag5 tumours [1]; 0.2 ng, short term): improved the function of vessels within the tumour
formation of ectopic lymph node structures associated with HEVs (MECA79) (RIP1-Tag5 tumours [1]; [6]): induced the formation of ectopic lymph node structures
tumours with HEV structures (RIP1-Tag5 tumours [1]; [6]): 60-75%
immune cell infiltration of intratumoural areas surrounding HEVs (RIP1-Tag5 tumours [1]; 20 ng, short term): heavily infiltrated with T cells and B cells
efficacy (total tumour burden by weight) (RIP1-Tag5 tumours [1]; two week, 20 ng LIGHT-RGR with anti-PD-1/anti-CTLA4 double treatment versus single antibodies): superior to single treatment
CCL21 secretion by stromal cells (stromal cells): stimulates stromal cells to secrete CCL21
effect on vessels in RIP1-Tag5 mice (RIP1-Tag5 tumours [2]): caused vessel death
TGFβ secretion by tumour macrophages [3]: stimulates macrophages in the tumour environment to secrete TGFβ
vessel normalization as shown for RIP1-Tag5 mice (4T1 breast cancer; 20 ng): reproduced all aspects of vessel normalization
vessel normalization (4T1 breast cancer; 20 ng i.v. bi-weekly for 2 weeks, 4T1): induces vessel normalization
contractile markers in pericytes (caldesmon) (4T1 breast cancer; 20 ng, 4T1): induced contractile markers in pericytes
overall vascularity (CD31+ vessels) (4T1 breast cancer; 20 ng, 4T1): without change in overall vascularity
tumour hypoxia (pimonidazole) (4T1 breast cancer; 20 ng, 4T1): reduced tumour hypoxia; also recorded: reduces tumor hypoxia
vessel calibers (4T1 breast cancer; 20 ng, 4T1): reduced vessel calibers
vessel perfusion (FITC-lectin) (4T1 breast cancer; 20 ng, 4T1): increases vessel perfusion
binding affinity to tumor vessels relative to RIP1-Tag5 (4T1 breast cancer; breast cancer model): lower binding affinity to tumor vessels
dose required to recapitulate the vessel phenotype of RIP1-Tag5 mice treated with 0.2 ng (4T1 breast cancer; breast cancer model): 20 ng
survival of RIP1-Tag5 mice at week 30 (RIP1-Tag5 tumours [4]; 0.2 ng LIGHT-RGR combined with adoptive T cell transfer): approximately 70%
survival over vaccination alone or vaccination with LIGHT (RIP1-Tag5 tumours [4]; 0.2 ng in combination with anti-Tag vaccination): substantially increased survival
inflammatory response at tumour site / tumour appearance (RIP1-Tag5 tumours [4]; 0.2 ng long term in combination with adoptive transfer of anti-Tag lymphocytes): substantial inflammatory response at the tumour site and pale
tumour size / tumour burden (RIP1-Tag5 tumours [4]; 0.2 ng plus cyclophosphamide, 8 weeks): shift from large tumours to smaller tumours
apoptotic tumour cells (TUNEL), compared to each treatment alone (RIP1-Tag5 tumours [4]; 0.2 ng plus low dose metronomic cyclophosphamide in drinking water, 8 weeks): significant increase in apoptotic tumour cells
survival compared to controls (RIP1-Tag5 tumours [4]; 20 ng LIGHT-RGR with anti-PD-1 (250 μg) and anti-CTLA4 (75 μg) antibodies, week 23 to 45): significantly increased survival
survival at 45 weeks of age (RIP1-Tag5 tumours [4]; 20 ng LIGHT-RGR with tumour specific (anti-Tag) vaccine): 30%
RIP1-Tag5 mice alive at 45 weeks (RIP1-Tag5 tumours [4]; 20 ng LIGHT-RGR+vaccine+anti-PD-1+anti-CTLA4): 70%
tumour cell apoptosis (TUNEL) (RIP1-Tag5 tumours [4]; 20 ng, long term): increase in tumour cell apoptosis
tumour cell content (Dapi, H&E) (RIP1-Tag5 tumours [4]; 20 ng, long term): substantial reduction of tumour cells
tumour necrosis at 30 weeks (RIP1-Tag5 tumours [4]; 20 ng, long term): highly necrotic
survival compared to either treatment alone (RIP1-Tag5 tumours [4]; LIGHT-RGR in combination with cyclophosphamide from week 22): significant increased survival
survival of RIP1-Tag5 mice at week 30 (RIP1-Tag5 tumours [4]; single treatments, LIGHT-RGR 0.2 ng, treated from week 22): approximately 30%

B2: LIGHT (protein, listed as Mus musculus)
chain: MESVVQPSVFVVDGQTDIPFRRLEQNHRRRRCGTVQVSLALVLLLGAGLATQGWFLLRLHQRLGDIVAHLPDGGKGSWEKLIQDQRSHQANPAAHLTGANASLIGIGGPLLWETRLGLAFLRGLTYHDGALVTMEPGYYYVYSKVQLSGVGCPQGLANGLPITHGLYKRTSRYPKELELLVSRRSPCGRANSSRVWWDSSFLGGVVHLEAGEEVVVRVPGNRLVRPRDGTRSYFGAFMV
vessel leakiness (extravasation of 70 kDa dextran) (RIP1-Tag5 tumours [1]; 0.2 ng, 2 week treatment): leaky phenotype
calponin/caldesmin induction in pericyte cells (pericyte cell line): not induced
